Laboratory results: paper PMC11790868
Several values for one entry are separate records, joined by “and”; a condition that tells them apart may be missing. Equal entries are not always repeated.

How the values were obtained:
H3K18DTU nucleosome = H3K18DTU nucleosome (UniProt P0C0S8); assay: native gel or EMSA; nucleosomes 100 nM, NAD+ 0 or 150 uM, SIRT7 0-1.6 uM; 10 mM Tris-HCl, 50 mM KCl, 1 mM DTT, pH 7.5; 25 °C, 30 min; 5% TBE native gel run on ice, GelRed
H3K36MTU nucleosome = H3K36MTU nucleosome (UniProt P0C0S8); assay: as above

stoichiometry N (SIRT7 per nucleosome) (H3K18DTU nucleosome): 1 and 2 | stoichiometry N (SIRT7 per nucleosome) (H3K36MTU nucleosome): 1 and 2
Substance: SIRT7 (wild type, full length) (from UniProt Q9NRC8 1-400) (enzyme)
